According to article PMC10616090, “Tailoring FPOX enzymes for enhanced stability and expanded substrate recognition” (Scientific Reports, 2023):
Where no end group is shown, it is not given here.

B1: fructosyl-Val-His-Leu-Thr-Pro-Glu hexapeptide (F6P) (peptide)
peptide: {1‑deoxyfructosyl}-VHLTPE
B2: PnFPOX (WT) (Parastagonospora nodorum SN15) (protein)
chain: MAPSRANTSVIVVGGGGTIGSSTALHLVRSGYTPSNVTVLDAYPIPSSQSAGNDLNKIMGVSLRNPVDLQLALEARQMWNEDELFKKFFHNTGRLDCAHGEKDIADLKSGYQALVDAGLDATNEWLDSEDEILKRMPLLSRDQIKGWKAIFSKDGGWLAAAKAINAVGEYLRDQGVRFGFYGAGSFKAPLLAEGVCIGVETVDGTRYYADKVVLAAGAWSPTLVELHEQCVSKAWVYGHIQLTPEEAARYKNSPVVYNGDVGFFFEPNEHGVIKVCDEFPGFTRFKMHQPFGAKAPKRISVPRSHAKHPTDTIPDASDVSIRRAIATFMPQFKNKKMFNQAMCWCTDTADAALLICEHPEWKNFVLATGDSGHSFKLLPNIGKHVVELLEGTLADDLAHAWRWRPGSGDALKSRRSAPAKDLADMPGWNHDKPRANL
notes: C-terminal 6His tag (kept), recombinant in E. coli BL21 Star (DE3); pET15b or pET17b; FAD enzyme

Columns and labels:
[1] = target: X02C variant of PnFPOX (derived from L3-35A through X02A) (Phaeosphaeria nodorum)
[2] = target: Phaeosphaeria nodorum fructosyl peptide oxidase (PnFPOX), wild type (Phaeosphaeria nodorum)
[3] = substrate: CC(C)[C@H](NC[C@@]1(O)OC[C@@H](O)[C@@H](O)[C@@H]1O)C(=O)O; test: glucosone release, o-phenylenediamine, A322, Lineweaver-Burk fit; assay type: biochemical, Parastagonospora nodorum; settings: 20 mM Tris HCl pH 7.4, 25 °C, 20 mM o-phenylenediamine, substrate 0.05-10 mM
Description: glucosone release, o-phenylenediamine, A322, Lineweaver-Burk fit on PnFPOX (WT)

Row | Binder | Km for F6P in the enzymatic activity assay (glucosone release at 322 nm, F6P 0.05 to 1 mM, Lineweaver-Burk fit) [1] [µM] | Km for F6P in the enzymatic activity assay (glucosone release at 322 nm, F6P 0.05 to 1 mM, Lineweaver-Burk fit) [2] [µM] | Km [3] [µM] | Vmax [3] [µM/min] | kcat [3] [s⁻¹] | kcat/Km [3] [M⁻¹ s⁻¹]
1 | B1 | 30 | 810 | – | – | – | –
2 | B2 | – | – | 5930 ± 1610 | 41700 | 99.3 ± 19.9 | 16800
